Kd and IC50 data for eleven molecules are collected here from patent US20190032056, “STEM-LOOP COMPOSITIONS AND METHODS FOR INHIBITING FACTOR D” (Vitrisa Therapeutics, Inc., published 2019).

Data set [1] deals with T1, complement Factor D (fD) (Homo sapiens, UniProt P00746 SEQ:1-228). Briefly: TR-FRET, 50 mM MOPS pH 7.4, 125 mM NaCl, 1 mM Ca and Mg, 25 C. The note with it: tags: His-tagged recombinant, bead-immobilized via His capture beads (flow) or anti-His Eu (TR-FRET); hairpin. The procedure:
(§1) The binding affinity of aptamers for fD was determined in solution using a homogenous time-resolved fluorescence resonance energy transfer (TR-FRET) assay (Table 21). In brief, 2.5 nM recombinant human Factor D with a hexahistidine tag (SEQ ID NO:324) (His), 2.5 nM anti-His Europium, and varied concentrations of Dylight® 650-labeled aptamer was added to half-well black 96-well plates in TR-FRET buffer (50 mM MOPS, pH 7.4, 125 mM NaCl, 5 mM KCl, 0.1 mg/mL BSA, 50 μM CHAPS, 1 mM CaCl₂ and 1 mM MgCl₂). After 1 hour incubation at 25° C., binding activity was assessed using a BioTek® Cytation™ 5 plate reader. Affinity binding constants were calculated as the concentration at which 50% of aptamer is bound using a single site binding model, with values ranging from 0.66 nM to 2.5 nM (Table 21).

Data set [2] addresses T1, complement Factor D (fD). Put plainly: SPR; fD immobilized. The note with it: tags: amine-coupled to dextran chip for SPR; free in esterase assay; hairpin. The procedure: (§2) The binding affinity of aptamers for fD was determined by surface plasmon resonance (SPR) on a Reichert4 SPR System, where either aptamer or fD was immobilized as ligand on a solid surface and the interactant analyte was flowed in solution over the immobilized ligand (Table 20).

Data set [3] concerns the target T2, complement Factor D (fD) in C1q-depleted human serum (Homo sapiens, UniProt P00746 SEQ:1-228). Briefly: inhibition; hemolysis, sd 1.4. The note with it: protein: extract; tags: endogenous fD, about 9.6 nM in 10% serum; hairpin. The procedure:
(§3) In V-bottom 96-well plates the following reagents were added to a final volume of 250 μL: appropriate volume of 1× Veronal buffer with 0.1% gelatin, 100 μL aptamer, 30 μL of C1q-depleted human serum and 20 μl RBCs. This mixture was incubated for 25 minutes at room temperature, then the reaction was stopped by the addition of 5 μL of 500 mM EDTA. The plate was centrifuged for 5 minutes at 500×g at room temperature, then 100 μL of supernatant was removed and the extent of RBC lysis was determined by measuring absorbance at 405 nm.
(§4) The potency of the PEG-aptamers P01, P04, P06, P07 and P08 compared to their non-pegylated counterparts was determined in the alternative complement-dependent hemolysis assay as described in Example 2.

The target in data set [4] is T1, complement Factor D (fD). Briefly: flow; bead-based direct binding. The note with it: tags: His-tagged recombinant, bead-immobilized via His capture beads (flow) or anti-His Eu (TR-FRET); hairpin.
The target of data set [5] is T2, complement Factor D (fD) in …. Put plainly: inhibition; hemolysis, sd 4.4. The note with it: protein: extract; tags: endogenous fD, about 9.6 nM in 10% serum; hairpin. The procedure: as §3, §4
For data set [6], the target named is T1, complement Factor D (fD). Briefly: flow; bead-based direct binding, 37 C. The note with it: tags: His-tagged recombinant, bead-immobilized via His capture beads (flow) or anti-His Eu (TR-FRET); hairpin. (In TR-FRET formats the signal depends on donor and acceptor labels being close together.)
Data set [7] addresses T2, complement Factor D (fD) in …. Put plainly: inhibition; hemolysis, sd 0.8. The note with it: protein: extract; tags: endogenous fD, about 9.6 nM in 10% serum; hairpin. The procedure: as §3, §4
For data set [8] the target is unchanged. Put plainly: inhibition; hemolysis, sd 0.5. The note with it: protein: extract; tags: endogenous fD, about 9.6 nM in 10% serum; hairpin. The procedure: as §3, §4
Data set [9] shares this target. Put plainly: inhibition; hemolysis, sd 1.5. The note with it: protein: extract; tags: endogenous fD, about 9.6 nM in 10% serum; hairpin. The procedure:
as §3, §4

Data set [10] shares this target. Put plainly: inhibition; hemolysis, sd 0.4. The note with it: protein: extract; tags: endogenous fD, about 9.6 nM in 10% serum; hairpin. The procedure: as §3, §4
For data set [11], the target named is T1, complement Factor D (fD). Briefly: TR-FRET, 25 C. The note with it: tags: His-tagged recombinant, bead-immobilized via His capture beads (flow) or anti-His Eu (TR-FRET); hairpin. The procedure: as §1
For data set [12], the target named is T1, complement Factor D (fD). Put plainly: SPR. The note with it: tags: amine-coupled to dextran chip for SPR; free in esterase assay; hairpin. The procedure: as §2
In data set [13] the target is T2, complement Factor D (fD) in …. Put plainly: inhibition; hemolysis, sd 0.1. The note with it: protein: extract; tags: endogenous fD, about 9.6 nM in 10% serum; hairpin. The procedure: as §3, §4
Data set [14] has the same target. Briefly: inhibition; hemolysis, sd 0.6. The note with it: protein: extract; tags: endogenous fD, about 9.6 nM in 10% serum; hairpin. The procedure: as §3, §4
For data set [15] the target is unchanged. Put plainly: inhibition; hemolysis; Table 17 lists about 10 nM. The note with it: protein: extract; tags: endogenous fD, about 9.6 nM in 10% serum; hairpin. The procedure: as §3
For data set [16] the target is unchanged. Put plainly: inhibition; hemolysis, sd 0.9. The note with it: protein: extract; tags: endogenous fD, about 9.6 nM in 10% serum; hairpin. The procedure: as §3, §4

T2 sequence (P00746 26-253): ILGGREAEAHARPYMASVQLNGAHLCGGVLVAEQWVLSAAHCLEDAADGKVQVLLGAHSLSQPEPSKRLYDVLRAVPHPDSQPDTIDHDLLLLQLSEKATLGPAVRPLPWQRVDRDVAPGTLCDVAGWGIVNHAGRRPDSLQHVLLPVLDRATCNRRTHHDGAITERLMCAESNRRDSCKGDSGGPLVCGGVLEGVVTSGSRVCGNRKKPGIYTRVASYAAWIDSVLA
T1 sequence (P00746 26-253): as above

B1: Aptamer 74 (ssRNA)
RNA: CCGCCUUGCCAGUAUUGGCUUAGGCUGGAAGUUUGGCGG
modifications: 2'-F G except 2'-OMe G at 3,35,36,38,39; 2'-OMe A,C,U; 5' C6NH2; 3' idT
In general, Kd refers to the equilibrium constant for the complex coming apart. By IC50 is commonly meant the concentration needed to halve the response being measured. High values mean a need for much substance, low ones inhibition by little substance. Take B1: the Kd in the data set with complement Factor D (fD) [1] amounted to 2.5 nM; with complement Factor D (fD) [2], 3.7 nM; in the data set with complement Factor D (fD) [4], 2.7 nM. In data set [3], this molecule showed an IC50 of 7 nM.

B2: Aptamer 15 (ssRNA)
RNA: CCGCCUUGCCAGUAUUGGCUUAGGCUGGAAGUUUGGCGG
modifications: 2'-F G; 2'-OMe A,C,U; 5' C6NH2; 3' idT
B2 yielded an IC50 in data set [5] of 9.4 nM. For the same molecule, the Kd in the data set with complement Factor D (fD) [6] was 8.37 nM.

B3: P04 (PEGylated Aptamer 74) (ssRNA)
RNA: CCGCCUUGCCAGUAUUGGCUUAGGCUGGAAGUUUGGCGG
modifications: as Aptamer 74 (2'-OMe G at 3,35,36,38,39; other G 2'-F; 2'-OMe A,C,U); 5' 40 kDa branched PEG via C6NH2; 3' idT
In [7], B3 displayed an IC50 of 3.2 nM.

B4: P08 (PEGylated Aptamer 106) (ssRNA)
RNA: CCGACUUGCCAGUAUUGGCUUAGGCUGGAAGUUUGUCGG
modifications: as Aptamer 106; 5' 40 kDa branched PEG via C6NH2; 3' idT
With B4, in data set [8], the IC50 was found to be 4.1 nM.

B5: P01 (PEGylated Aptamer 15) (ssRNA)
RNA: CCGCCUUGCCAGUAUUGGCUUAGGCUGGAAGUUUGGCGG
modifications: 2'-F G; 2'-OMe A,C,U; 5' 40 kDa branched PEG via C6NH2; 3' idT
In turn, B5 gave an IC50 in data set [9] of 6.1 nM.

B6: Aptamer 106 (ssRNA)
RNA: CCGACUUGCCAGUAUUGGCUUAGGCUGGAAGUUUGUCGG
modifications: 2'-F G except 2'-OMe G in stem 1; 2'-OMe A,C,U; 5' C6NH2; 3' idT
B6 came in with an IC50 in [10] of 5.2 nM. The Kd in the data set with complement Factor D (fD) [11] turned out to be 0.66 nM; in the data set with complement Factor D (fD) [12], 1.7 nM.

B7: Aptamer 102 (ssRNA)
RNA: CGACUUGCCAGUAUUGGCGAUGGCUGGAAGUUUGUCG
modifications: 2'-F G except 2'-OMe G in stem 1; 2'-OMe A,C,U; 5' C6NH2; 3' idT
Turning to B7, the Kd turned out to be 1.6 nM in the data set with complement Factor D (fD) [11] and 2.5 nM with complement Factor D (fD) [12]. The same molecule gave an IC50 in data set [13] of 6.3 nM.

B8: P07 (PEGylated Aptamer 102) (ssRNA)
RNA: CGACUUGCCAGUAUUGGCGAUGGCUGGAAGUUUGUCG
modifications: as Aptamer 102; 5' 40 kDa branched PEG via C6NH2; 3' idT
Molecule B8 registered an IC50 in [14] of 4.4 nM.

B9: Aptamer 53 (ssRNA)
RNA: CGACUUGCCAGUAUUGGCGAUGGCUGGAAGUUUGUCG
modifications: 2'-F G; 2'-OMe A,C,U; 5' C6NH2; 3' idT
Consider B9, for which the IC50 in data set [15] is under 10 nM.

B10: Aptamer 76 (ssRNA)
RNA: CCGACUUGCCAGUAUUGGCGAUGGCUGGAAGUUUGUCGG
modifications: 2'-F G except 2'-OMe G in stem 1; 2'-OMe A,C,U; 5' C6NH2; 3' idT
For the molecule B10, the Kd in the data set with complement Factor D (fD) [11] turned out to be 0.8 nM; with complement Factor D (fD) [12], 1.6 nM. The molecule also registered an IC50 in [7] of 4.2 nM.

B11: P06 (PEGylated Aptamer 76) (ssRNA)
RNA: CCGACUUGCCAGUAUUGGCGAUGGCUGGAAGUUUGUCGG
modifications: as Aptamer 76; 5' 40 kDa branched PEG via C6NH2; 3' idT
Regarding B11, the IC50 in data set [16] was 4.1 nM.
